Key:
[1] = Thermostability, ProteoStat Thermal Shift Stability Kit, temperature of aggregation; format: physicochemical
Procedure: Thermostability. The thermostability of proteins in a buffer cocktail of Citric Acid and Dibasic Sodium Phosphate over a pH range of 2.8 to 7.1 (preparation described above in Table E31B) was determined using the ProteoStat® Thermal Shift Stability Kit (Enzo Life Sciences) according to the manufacturer's standard protocol. Briefly, protein solutions (˜10 mg/ml) containing 1× ProteoStat TS Detection Reagent were heated from 25° C. to 95° C. at a rate of 0.5° C. per 30 sec using a real-time PCR (rtPCR) thermocycler (BioRad) equipped with a plate reader (SynergyMx, Biotek) while monitoring the fluorescence with a Texas Red filter.

[2] = Intact half-life during simulated gastric fluid (SGF) digestion; conditions: for SGF Half-life (t½): SGF pH 1.5, pepsin:polypeptide 1:20 w/w, 37° C., produced in E. coli unless otherwise noted; for Half-life: purified proteins, chip electrophoresis, SGF
Procedure: Nutritive polypeptide half-life during simulated digestion. One metric for quantifying the breakdown of polypeptides from an intact form to smaller peptides is the intact half-life. In this experiment the nutritive polypeptide was exposed to a series of proteases that are active in the stomach (pepsin) and intestine (trypsin and chymotrypsin), and the presence of intact protein was measured over time. Specifically, the nutritive polypeptide was first treated at a concentration of 2 g/L with simulated gastric fluid (SGF) (0.03 M NaCl, titrated with HCl to pH 1.5 with a final pepsin: polypeptide ratio of 1:20 w/w) at 37° C. Time points were sampled from the reaction and quenched by addition of 0.2 M Na2CO3. […] Time points were sampled from the reaction and quenched by addition of Trypsin/Chymotrypsin Inhibitor (Sigma) solution until 240 min.
Time point samples were analyzed for intact protein by chip electrophoresis, polyacrylamide gel electrophoresis, or western blot. For chip electrophoresis (Labchip GX II), samples were analyzed using a HT Low MW Protein Express LabChip® Kit (following the manufacturer's protocol). A protein ladder was loaded every 12 samples for molecular weight determination (kDa) and quantification. For polyacrylamide gel electrophoresis, samples (1 μg) were separated on a NuPAGE® Novex® Bis-Tris Precast gel (Life Technologies) according to the manufacturer's protocol. The gel was stained using SimplyBlue™ SafeStain (Invitrogen) and imaged using a Chemidoc XRS+ (BioRad) or transferred onto nitrocellulose membranes using the iBlot® Dry Blotting System (Life Technologies) and iBlot® Western Detection Kit (Life Technologies) according to the manufacturer's protocol. Proteins were detected by blotting with Anti-His [C-term]-HRP antibody diluted 3:5000 in Blok™-PO Blocking Buffer using the SNAP i.d.® Protein Detection System (Millipore) according to the manufacturer's protocol. Blots were treated with Luminata Classico Western HRP Substrate (Millipore) according to the manufacturer's protocol and imaged using chemiluminescent detection on the Molecular Imager® Gel Doc™ XR+ System (Bio-Rad). Quantification of intact protein was determined by densitometry using ImageLab (BioRad). For all analysis methods the relative concentration of the polypeptide at each time point (if detected) was plotted overtime and fit to an exponential curve to calculate the intact half-life.
Specifically, the t=0 (enzyme-free control) and t=2 min samples from the SGF digest were analyzed for intact protein as described by chip electrophoresis, SDS-PAGE, western blot, and/or LC-MS/MS. Relative quantities of polypeptides at each time point were determined and the percentage of intact protein remaining at t=2 was determined.

[3] = pH solubility screen in Citric Acid / Dibasic Sodium Phosphate buffers; format: physicochemical; conditions: for pH Range where Protein is >80% detected as Soluble and A650 <1 OD: Low: lower pH of range; for pH Range where Protein is >80% detected as Soluble and A650 <1 OD: High: upper pH of range
Procedure: pH Solubility. […] Protein was either lyophilized and then resuspended in buffer cocktail mixtures, or concentrated and then spiked into buffer cocktail mixtures at a final protein concentration of 5 to 30 mg/ml. As a control, protein was also dissolved in a solution of 8 M urea. Protein solutions were shaken for 10 min at room temperature. Turbidity of proteins was determined by measuring the absorbance of protein solutions at 650 nm. The protein solution was then centrifuged for 10 min at 1100×g to pellet undissolved or precipitated protein. The soluble protein fraction (supernatant) was sampled and protein concentration was measured by one or more of the following methods: Coomassie Plus Protein Assay (Pierce), Chip electrophoresis, gel electrophoresis, and/or absorbance at 280 nm. The pH range over which select proteins remained greater than 80% soluble as determined by Bradford and the A650 value are listed in Table E31C.

[4] = Solubility of proteins (lyophilized/reconstituted or ultrafiltered); conditions: produced in E. coli unless otherwise noted
Procedure: Solubility. […] Protein samples were dried by lyophilization on a FreeZone Freeze Dry System (Labconco) using the manufacturer's standard protocol and then resuspended in buffer to the desired concentration. Centrifugal and tangential ultrafiltration were used to selectively remove buffer from the protein sample until the desired concentration was reached. Centrifugal ultrafiltration of protein solutions was performed by centrifugation (10,000×g) of 10 mg of protein in an Amicon centrifugal filter (Millipore) with a molecular weight cutoff of 3 kDa, 10 kDa, or 30 kDa, depending on the protein size, until the desired contrentration was reached. Ultrafiltration of protein solutions was performed on Hydrosart ultrafiltration cassettes (Sartorius Stedim, Bohemia, NY) with a molecular weight cutoff of 3 kDa, 10 kDa, or 30 kDa, depending on the protein size, at a cross flow rate of 12 L/m2/min. For most processes, transmembrane pressure was maintained at 20 psi and performed until the desired contrentration was reached.
The protein concentration of the above samples was measured by one or a combination of the following methods: Coomassie Plus Protein Assay, absorbance at 280 nm (A280), and total amino acid analysis. Coomassie Plus Protein Assays (Pierce) were performed according to the manufacturer's protocol. Absorbance at 280 nm was measured on a Nanodrop 2000 UV-Vis spectrophotometer. Protein concentration was determined using the A280 value and molar extinction coefficient, which was calculated by primary amino acid sequence using ProtParam (Gasteiger, Elisabeth, et al. The proteomics protocols handbook. Humana Press, 2005. 571-607.). Total amino acids were analyzed by HPLC after acid hydrolysis as described in Henderson, J. W., et al. Agilent Technologies (2010).

[5] = heated 25° C. to 95° C., NS = protein not soluble

B1: SEQID-00220: nutritive polypeptide (protein, listed as Bos taurus)
chain: DTKKKVDDDLGTIENLEEAKKKLLKDVEVLSQRLEEKALAYDKLEKTKTRLQQELDDLLVDLDHQ
What does the source list for B1?
Tagg (pH 7.1) ([1]; heated from 25° C. to 95° C.): >95; SGF Half-life (t½) [2]: 30 s

B2: SEQID-00269: nutritive polypeptide (protein)
chain: DLKKKLDDDLGTLENLEELKKKLLKDLELLSQRLEELALAYDKLEKTKTRLQQELDDLLLDLDHQ
For B2, which “pH Range where Protein is >80% detected as Soluble and A650 <1 OD: Low” value (shortened to “pH Range where Protein is >80% detected … Low”) [3] is on record?
Its value is 7.2.

What about the “pH Range where Protein is >80% detected as Soluble and A650 <1 OD: High” value (shortened to “pH Range where Protein is >80% detected … High”) [3] of the same molecule?
The value was 9.1.

What about the “Tagg (pH 7.1)” value ([1]; heated from 25° C. to 95° C.) of the same molecule?
The value was greater than 95.

What about the “SGF Half-life (t½)” value [2] of the same molecule?
Its value is 2460 s.

B3: SEQID-00302: nutritive polypeptide (protein)
chain: MAKKTVANLSASELSGKKVLVRADFNVPLDNGSISDDTRIRAALPTIQDLTSKGAKVILSSHFGRPQGQVVESMRLTPVAARLSELLGKTVKKCDDCIGEEVAVAVGAMSDGDVLLLENVRFHAAEEKNDPEFAKQLASVADLYVNDAFGTAHRAHASTEGVTKYLSPCVAGYLIEKELQFLQGAIESPQRPLAAIIGGSKVSSKIGVIEALLDKCDKLLLGGGMIFTFYKARGLSVGNSLVEEDKLELAKSLEAKAKEKGVTMLLPTDVVLADKFAADADSQTVSVEAIPDGWMGLDIGPDSVKVFQEALGDCKTVLWNGPMGVFEFEKFAAGTRAIAQTLAELTSTGTTTIIGGGDSVAAVEQLNLGEKMSHISTGGGASLELLEGKQLPGIVALDDA
modifications: Arthrospira platensis C1
notes: nutritive polypeptide
Which “Tagg (pH 7.1)” value ([1]; heated from 25° C. to 95° C.) does the source give for B3 here?
Its value is 46.

What about the “SGF Half-life (t½)” value [2] of the same molecule?
The value was 12 s.

B4: SEQID-00226: nutritive polypeptide (protein, listed as Bos taurus)
chain: QLQALQAQLTDTKKKVDDDLGTIENLEEAKKKLLKDVEVLSQRLEEKALAYDKLEKTKTRLQQELDDLLVDLDHQRQIVSNLEKKQKKFDQLLAEEKNIS
With B4 as the molecule, how does the “pH Range where Protein is >80% detected … Low” value [3] read?
Its value is 2.6.

What about the “pH Range where Protein is >80% detected … High” value [3] of the same molecule?
The value was 9.1.

What about the “Tagg (pH 7.1)” value ([1]; heated from 25° C. to 95° C.) of the same molecule?
The value was greater than 95.

What about the “SGF Half-life (t½)” value [2] of the same molecule?
Its value is 42 s.

B5: SEQID-00098: nutritive polypeptide (protein, listed as Lactococcus lactis)
chain: MAVFEKVQDIIVDELGKEKEEVTLETSFEELDADSLDLFQIINDIEDEFDVEVDTEADMKTVADLVKYVENNK
Which “Tagg (pH 7.1)” value [1, 5] does the source give for B5 here?
The value was greater than 95.

And the “SGF Half-life (t½)” value [2]?
The value was 24 s.

B6: SEQID-00241: nutritive polypeptide (protein, listed as Bos taurus)
chain: SELKKDIDDLELTLAKVEKEKHATENKVKNLTEEMAGLDETIAKLTKEKKALQEAHQQTLDDLQAEEDKVNTLTKAKTKLEQQVDDLEGSLEQEKKLRMDLERAKRKLEGDLKLA
What does the source list for B6?
pH Range where Protein is >80% detected as Soluble and A650 <1 OD: Low [3]: 4.3; pH Range where Protein is >80% detected as Soluble and A650 <1 OD: High [3]: 9.1; Tagg (pH 7.1) ([1]; heated from 25° C. to 95° C.): >95; SGF Half-life (t½) [2]: 18 s

B7: SEQID-00115: nutritive polypeptide (protein, listed as Sus scrofa)
chain: EDEDDKTVSDLAVVLFETATLRSGYLLPDTKAYGDRIERMLRLSLNIDPDAKVEEEPEEEPEETTEDTTEDTEQDDDEEMDAGADEEEQETSETSTAEKDE
With B7 as the molecule, how does the “Solubility” value [4] read?
The value was 70 mg/mL.

B8: SEQID-00236: nutritive polypeptide (protein, listed as Bos taurus)
chain: ALQEAHQQTLDDLQAEEDKVNTLTKAKTKLEQQVDDLEGSLEQEKKLRMDLERAKRKLEGDLKLA
For B8, which “SGF Half-life (t½)” value [2] is on record?
The value was 600 s.

What about the “Solubility” value [4] of the same molecule?
Its value is 60 mg/mL.

B9: SEQID-00100: nutritive polypeptide (protein, listed as Lactobacillus acidophilus)
chain: MSEEEIFNKIKDLIADNFEVDKDSITENTNFMNDLDADSIDLVEFILQLEDEFGAEIPDDEAEKIKTVGDAVSYIKSHQG
Which results are given for B9?
pH Range where Protein is >80% detected as Soluble and A650 <1 OD: Low [3]: 4.3; pH Range where Protein is >80% detected as Soluble and A650 <1 OD: High [3]: 7.1; Tagg pH 2.8 ([1]; NS = protein not soluble): 95; Tagg pH 3.7 ([1]; NS = protein not soluble): 95; Tagg pH 3.9 ([1]; NS = protein not soluble): 95; Tagg pH 4.3 ([1]; NS = protein not soluble): 83; Tagg pH 4.6 ([1]; NS = protein not soluble): 84; Tagg pH 5.0 ([1]; NS = protein not soluble): 95; Tagg pH 5.6 ([1]; NS = protein not soluble): 95; Tagg pH 6.0 ([1]; NS = protein not soluble): 95; Tagg pH 6.5 ([1]; NS = protein not soluble): 95; Tagg (pH 7.1) [1, 5]: >95; SGF Half-life (t½) [2]: 120 s

B10: SEQID-00510: nutritive polypeptide naturally produced in Turkey, recombinantly expressed in E. coli (protein)
chain: MVPIAEKMAEKQEEPSNTQNGEPDNAEEGEGKKKKKVKREDLPPFEIVTGERLPAIFFKFQFRNVEYSSGRNKTFLCYVVETQGKESTTSRGYLEDEHAASHAEIAFFNTILPKCESSLRYNITWYVSSSPCVTCADRISETLRKNKNLRLTIMVGRLFMWEEPEMQAALKKMKSAGCKLRIMKPQDFEYVWQNFVEQEEGEEAKAFVPWEDIQENFQYYEEKLAEILQ
modifications: Meleagris gallopavo
notes: nutritive polypeptide naturally produced in Turkey, recombinantly expressed in E. coli
Which results are given for B10?
pH Range where Protein is >80% detected as Soluble and A650 <1 OD: Low [3]: 6.5; pH Range where Protein is >80% detected as Soluble and A650 <1 OD: Other [3]: 2.8; pH Range where Protein is >80% detected as Soluble and A650 <1 OD: High [3]: 7.1; SGF Half-life (t½) [2]: 18 s; Half-life [2]: 18 s

B11: SEQID-00598: nutritive polypeptide naturally produced in Flaxseed, recombinantly expressed in E. coli (protein, listed as Linum usitatissimum)
chain: MSRRCPGKNAWPELVGKSGNMAAATVERENRNVHAIVLKEGSAMTKDFRCDRVWVIVNDHGVVTSVPHIT
Which “SGF Half-life (t½)” value [2] does the source give for B11 here?
The value was 30 s.

And the “Half-life” value [2]?
Its value is 30 s.

What about the “Solubility” value [4] of the same molecule?
The value was 150 mg/mL.

B12: SEQID-00287: nutritive polypeptide (protein, listed as Saccharomyces cerevisiae)
chain: LVLGALLDTSHKFRNLDKDLCEKCAKCISMIGVLDVTKHEFKRTTYSENEVYDLNDSVQTIKFLIWVINDILV
modifications: strain ATCC 204508 / S288c
notes: nutritive polypeptide
Which “pH Range where Protein is >80% detected … Low” value [3] does the source give for B12 here?
Its value is 6.2.

And the “pH Range where Protein is >80% detected as Soluble and A650 <1 OD: Other” value [3]?
The value was 2.6.

And the “pH Range where Protein is >80% detected … High” value [3]?
Its value is 9.1.

And the “SGF Half-life (t½)” value [2]?
Its value is 180 s.

B13: SEQID-00622: protein of the 168 nutritive polypeptide library (protein, listed as Oryza sativa)
chain: MASEGAVSPAFAYTVVYVKDVAKSAAFYSAAFGYTVRRLDQSHKWAELESGTTTIAFTPLHQRETDALTGAVQLPDSAGERGPVEICFDYADVDAAYRRAVDSGAVPVSPPEQKSWGQKVGYVRDIDGIIVRMGSHVRA
modifications: subsp. japonica
notes: protein of the 168 nutritive polypeptide library
With B13 as the molecule, how does the “pH Range where Protein is >80% detected … Low” value [3] read?
Its value is 2.8.

And the “pH Range where Protein is >80% detected … High” value [3]?
The value was 7.1.

And the “Tagg pH 2.8” value ([1]; NS = protein not soluble)?
Its value is 58.5.

And the “Tagg pH 3.7” value ([1]; NS = protein not soluble)?
Its value is 42.

And the “Tagg pH 3.9” value ([1]; NS = protein not soluble)?
Its value is 42.

And the “Tagg pH 4.3” value ([1]; NS = protein not soluble)?
Its value is 43.5.

What about the “Tagg pH 4.6” value ([1]; NS = protein not soluble) of the same molecule?
The value was 43.5.

And the “Tagg pH 5.0” value ([1]; NS = protein not soluble)?
The value was 42.5.

What about the “Tagg pH 5.6” value ([1]; NS = protein not soluble) of the same molecule?
Its value is 45.5.

What about the “Tagg pH 6.0” value ([1]; NS = protein not soluble) of the same molecule?
Its value is 46.

And the “Tagg pH 6.5” value ([1]; NS = protein not soluble)?
Its value is 47.

What about the “Tagg (pH 7.1)” value [1, 5] of the same molecule?
Its value is 95.

What about the “SGF Half-life (t½)” value [2] of the same molecule?
Its value is 396 s.

What about the “Half-life” value [2] of the same molecule?
Its value is 396 s.

B14: SEQID-00305: nutritive polypeptide (protein, listed as Bos taurus)
chain: MPHQYPALTPEQKKELCDIAHRIVAPGKGILAADESTGSIAKRLQSIGTENTEENRRFYRQLLLTADDRVNPCIGGVILFHETLYQKADDGRPFPQVIKAKGGVVGIKVDKGVVPLAGTNGETTTQGLDGLSERCAQYKKDGADFAKWRCVLKIGEHTPSSLAIMENANVLARYASICQQNGIVPIVEPEILPDGDHDLKRCQYVTEKVLAAVYKALSDHHIYLEGTLLKPNMVTPGHACTQKYSHEEIAMATVTALRRTVPPAVPGITFLSGGQSEEEASINLNAINKCPLLKPWALTFSYGRALQASALKAWGGKKENLKAAQEEYVKRALANSLACQGKYTPSGKAGAAASESLFISNHAY
With B14 as the molecule, how does the “Tagg (pH 7.1)” value ([1]; heated from 25° C. to 95° C.) read?
The value was 48.

And the “SGF Half-life (t½)” value [2]?
Its value is 12 s.

Reference: patent publication US20260069656A1, “Nutritive Polypeptides and Formulations Thereof, and Methods of Production and Use Thereof” (Axcella Health Inc., priority 2013, published 2026)
